These results are taken from the Human Domainome abundance scans (Beltran et al. 2025).

The chains are these.
B1: Calcium-binding protein 2, residues 155 to 219; numbered along this chain, Q9NPB3 (parent)
chain: RELRDAFREFDTNGDGRISVGELRAALKALLGERLSQREVDEILQDVDLNGDGLVDFEEFVRMMS

± gives the uncertainty stated by the source.

In the data set the parent is B1. Kind of data set: abundance fitness (aPCA) (normalised: wild type 0, dead -1); higher = more abundant; growth selection in yeast, the domain comes from the species named. The conditions noted are these: Homo sapiens.
As to RELRDAFREFDQNGDGRISVGELRAALKALLGERLSQREVDEILQDVDLNGDGLVDFEEFVRMMS [T12Q], the abundance fitness was -0.148 ± 0.13. The value for RELRDAFREFDGNGDGRISVGELRAALKALLGERLSQREVDEILQDVDLNGDGLVDFEEFVRMMS [T12G] was -0.04 ± 0.054; that for RELRDAFREFDDNGDGRISVGELRAALKALLGERLSQREVDEILQDVDLNGDGLVDFEEFVRMMS [T12D] was -0.42 ± 0.13; that for RELRDAFREFDRNGDGRISVGELRAALKALLGERLSQREVDEILQDVDLNGDGLVDFEEFVRMMS [T12R] was -0.201 ± 0.056.

On to RELRDAFREFDTNGDGRISVGELRAALKALLGERLSQREVDEILSDVDLNGDGLVDFEEFVRMMS [Q45S], for which the abundance fitness was -0.147 ± 0.096. Next, RELRDAFREFDTNGDGRISVGELRAALKALLGERLSQREVDEILRDVDLNGDGLVDFEEFVRMMS [Q45R]: 0.054 ± 0.072; RELRDAFREFDTNGDGRISVGELRAALKALLGERLSQREVDEILTDVDLNGDGLVDFEEFVRMMS [Q45T]: 0.003 ± 0.067. The value for RELRSAFREFDTNGDGRISVGELRAALKALLGERLSQREVDEILQDVDLNGDGLVDFEEFVRMMS [D5S] was -0.382 ± 0.047. Next, RELRHAFREFDTNGDGRISVGELRAALKALLGERLSQREVDEILQDVDLNGDGLVDFEEFVRMMS [D5H]: -0.159 ± 0.062.

On to RELRDAFREFDTNGDGRISVGELRAALKALLGERLSQREWDEILQDVDLNGDGLVDFEEFVRMMS [V40W], for which the abundance fitness came to 0.041 ± 0.055. The value for RELRDAFREFDTNGDGRISVGELRAALKALLGERLSQREMDEILQDVDLNGDGLVDFEEFVRMMS [V40M] was 0.048 ± 0.091. The value for RELRDAFREWDTNGDGRISVGELRAALKALLGERLSQREVDEILQDVDLNGDGLVDFEEFVRMMS [F10W] was -0.076 ± 0.11; that for RELRDAFRESDTNGDGRISVGELRAALKALLGERLSQREVDEILQDVDLNGDGLVDFEEFVRMMS [F10S] was -0.148 ± 0.074.

Turning to RELRDAFRELDTNGDGRISVGELRAALKALLGERLSQREVDEILQDVDLNGDGLVDFEEFVRMMS [F10L], the abundance fitness was -0.449 ± 0.062.

For RELRDAFREFDTNGDGRISVGELRAALKKLLGERLSQREVDEILQDVDLNGDGLVDFEEFVRMMS [A29K], the abundance fitness worked out at 0.066 ± 0.14. Take RELRDAFREFDTNGDGRISVGELRAALKTLLGERLSQREVDEILQDVDLNGDGLVDFEEFVRMMS [A29T]: the abundance fitness was -0.023 ± 0.07. The value for RELRDAFREFDTNGDGRISVGELRAALKSLLGERLSQREVDEILQDVDLNGDGLVDFEEFVRMMS [A29S] was -0.02 ± 0.089; that for RELRDAFREFDTNGDGRISVGELRAALKALLGERLSQREVDEILQDVDLNGDHLVDFEEFVRMMS [G53H] was 0.011 ± 0.11; that for RELRDAFREFDTNGDGRISVGELRAALKALLGERLSQREVDEILQDVDLNGDGLVDFEEFVRFMS [M63F] was -0.081 ± 0.19. Next, RELRDAFREFDTNGDGRISVGELRAALKALLGERLSQREVDEILQDVDLNGDGLVDFEEFVRLMS [M63L]: 0.101 ± 0.057; RELRDAFREFDTNGDGRISVGELRANLKALLGERLSQREVDEILQDVDLNGDGLVDFEEFVRMMS [A26N]: -0.266 ± 0.16; RELRDAFREFDTNGDGRISVGELRAALKALLGERLSQREVDEILQDVDLNGDGLVDFEEFVRMRS [M64R]: 0.109 ± 0.053. The value for RELRDAFREFDTNGDGRISVGELRAALKALLGERLSQREVDEILQDVDLNGDGLVDFEEFVRMQS [M64Q] was -0.041 ± 0.19. With RELRDAFREFDTQGDGRISVGELRAALKALLGERLSQREVDEILQDVDLNGDGLVDFEEFVRMMS [N13Q], the abundance fitness is -0.924 ± 0.14. On to RELRDAFREFDTNGDGRISVGELRAACKALLGERLSQREVDEILQDVDLNGDGLVDFEEFVRMMS [L27C], for which the abundance fitness turned out to be 0.014 ± 0.091. The value for RELRDAEREFDTNGDGRISVGELRAALKALLGERLSQREVDEILQDVDLNGDGLVDFEEFVRMMS [F7E] was -0.841 ± 0.1. Next, RELRDAQREFDTNGDGRISVGELRAALKALLGERLSQREVDEILQDVDLNGDGLVDFEEFVRMMS [F7Q]: -0.803 ± 0.13; RELRDAIREFDTNGDGRISVGELRAALKALLGERLSQREVDEILQDVDLNGDGLVDFEEFVRMMS [F7I]: -0.644 ± 0.12.

As for RELRDAFREFDTNGDGRISVGELRAALKALLGERLHQREVDEILQDVDLNGDGLVDFEEFVRMMS [S36H], the abundance fitness is -0.564 ± 0.28.

With RELRDAFREFDTNGDGRISVGELRAALKALLGERLKQREVDEILQDVDLNGDGLVDFEEFVRMMS [S36K], the abundance fitness was found to be 0.047 ± 0.11.

In the case of RELRDAFREFDTNGDGRISVGELRAALKALLGERLMQREVDEILQDVDLNGDGLVDFEEFVRMMS [S36M], the abundance fitness was -0.092 ± 0.093. Next, RELRDAFREFDTNGDGRISVGELRAALKALLGERLTQREVDEILQDVDLNGDGLVDFEEFVRMMS [S36T]: 0.012 ± 0.12.

Consider RELRDDFREFDTNGDGRISVGELRAALKALLGERLSQREVDEILQDVDLNGDGLVDFEEFVRMMS [A6D], for which the abundance fitness is -0.709 ± 0.2. Next, RELRDWFREFDTNGDGRISVGELRAALKALLGERLSQREVDEILQDVDLNGDGLVDFEEFVRMMS [A6W]: -0.111 ± 0.053; RELRDAFRFFDTNGDGRISVGELRAALKALLGERLSQREVDEILQDVDLNGDGLVDFEEFVRMMS [E9F]: -0.294 ± 0.16. In the case of RELRDAFRRFDTNGDGRISVGELRAALKALLGERLSQREVDEILQDVDLNGDGLVDFEEFVRMMS [E9R], the abundance fitness is 0.085 ± 0.048. On to RELRDAFRGFDTNGDGRISVGELRAALKALLGERLSQREVDEILQDVDLNGDGLVDFEEFVRMMS [E9G], for which the abundance fitness was -0.016 ± 0.095.

For the variant RELRDAFREFDTNGDGRISVGELRAALKALLGERLSQREVHEILQDVDLNGDGLVDFEEFVRMMS [D41H], the abundance fitness was -0.437 ± 0.11. Next, RELRDAFREFDTNGDGRISVGELRAALKALLGERLSQREVVEILQDVDLNGDGLVDFEEFVRMMS [D41V]: -0.237 ± 0.076; RELRDAFREFDTNGDGRISVGELRAALKALLGERLSQREVWEILQDVDLNGDGLVDFEEFVRMMS [D41W]: -0.158 ± 0.075. The value for RELRDAFREFDTNGDGRISVGELRAALKALLGERLSQREVDEILQDVDLNNDGLVDFEEFVRMMS [G51N] was 0.098 ± 0.12.
